# Data reported in patent US11779649B2, “Antibodies to PMEL17 and conjugates thereof” (Novartis AG, priority 2018, dated 2023).
# Read-outs that look alike come from different tables or passages of the source. Starred links: 1 amine or outer side, 2 acyl side, 3 side chain; linkers in the order of their positions; H or OH if unused. Positions of bridges follow the written chain, without caps; N, C: chain ends. Non-standard residues stand in square brackets, D forms with d. Residues, ends and D or L forms follow the SMILES beside them. *: point of attachment. Leu(3R-OH,Nα-propionyl) = CCC(=O)N[C@H](C(=O)*)[C@H](O)C(C)C; X1 = CC(C)[C@@H](O[*:3])[C@H](N[*:1])C(=O)[*:2]; NMeT = CN[C@H](C(=O)O)[C@@H](C)O; dPhLac = O=C(O)[C@H](O)Cc1ccccc1; NMeA = CN[C@@H](C)C(=O)O; NMeDha = C=C(NC)C(=O)O
# T1: human PMEL17 (Homo sapiens, UniProt P40967)
# T1 construct: G-361 melanoma cell line expresses human PMEL17 at a lower level compared to the HKB11-human PMEL17 overexpressing cell line; endogenous in cells; host or cells: G-361 (human melanoma)
# T1 sequence (P40967 25-661): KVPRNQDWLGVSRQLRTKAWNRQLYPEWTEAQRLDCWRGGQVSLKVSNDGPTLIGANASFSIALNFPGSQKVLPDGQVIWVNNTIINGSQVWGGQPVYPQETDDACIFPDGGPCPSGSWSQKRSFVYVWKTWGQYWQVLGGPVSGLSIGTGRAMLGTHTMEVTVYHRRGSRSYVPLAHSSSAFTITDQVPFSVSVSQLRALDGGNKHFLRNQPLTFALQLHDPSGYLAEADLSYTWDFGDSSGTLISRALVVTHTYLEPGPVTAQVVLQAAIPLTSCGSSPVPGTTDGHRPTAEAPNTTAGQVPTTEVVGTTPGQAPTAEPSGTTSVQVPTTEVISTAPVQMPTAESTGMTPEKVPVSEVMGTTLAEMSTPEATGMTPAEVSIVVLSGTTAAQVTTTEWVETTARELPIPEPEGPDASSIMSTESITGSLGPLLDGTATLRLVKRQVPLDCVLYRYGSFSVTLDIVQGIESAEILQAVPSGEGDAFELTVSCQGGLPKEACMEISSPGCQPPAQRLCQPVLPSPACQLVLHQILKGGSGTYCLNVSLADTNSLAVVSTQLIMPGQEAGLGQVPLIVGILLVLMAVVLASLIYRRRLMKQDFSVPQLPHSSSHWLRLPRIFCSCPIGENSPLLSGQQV
# T2: mouse PMEL17 (Mus musculus, UniProt Q60696)
# T2 construct: B16-F10 (mouse PMEL17 expressing melanoma); endogenous in cells; host or cells: B16-F10 (mouse melanoma)
# T2 sequence (Q60696 24-626): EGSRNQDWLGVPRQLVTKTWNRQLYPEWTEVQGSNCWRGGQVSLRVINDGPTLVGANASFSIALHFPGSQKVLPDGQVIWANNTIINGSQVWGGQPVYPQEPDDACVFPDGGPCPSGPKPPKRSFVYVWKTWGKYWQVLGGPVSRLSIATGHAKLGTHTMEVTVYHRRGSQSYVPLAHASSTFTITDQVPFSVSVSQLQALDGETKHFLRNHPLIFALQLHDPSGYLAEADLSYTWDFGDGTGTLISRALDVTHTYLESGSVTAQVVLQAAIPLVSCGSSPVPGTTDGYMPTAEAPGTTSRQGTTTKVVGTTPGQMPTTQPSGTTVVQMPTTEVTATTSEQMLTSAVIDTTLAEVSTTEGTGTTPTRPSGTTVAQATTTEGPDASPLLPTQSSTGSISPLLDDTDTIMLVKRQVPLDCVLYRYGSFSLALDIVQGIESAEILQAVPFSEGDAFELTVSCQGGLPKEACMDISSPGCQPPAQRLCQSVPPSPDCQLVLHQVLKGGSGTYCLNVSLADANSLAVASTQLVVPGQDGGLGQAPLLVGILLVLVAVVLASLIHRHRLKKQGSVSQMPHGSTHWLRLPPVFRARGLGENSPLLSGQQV
# B1: Y010900: anti-PMEL17 antibody (IgG) (antibody, V domains shown)
# VH: EVQLVESGGGLVKPGGSLRLSCAASGFTFSNAWMSWVRQAPGKGLEWVGRIKSKTDAGTTDYAAPVKGRFTISRDDSKNTLYLQMNSLKTEDTAVYYCARTIYPSAPSSSLDYWGQGTLVTVSS
# VL: DIQMTQSPSSLSASVGDRVTITCRASQGISNYLAWYQQKPGKVPKLLIYAASTLQSGVPSRFSGSGSGTDFTLTISSLQPEDVATYYCQQLIFFPLTFGQGTKVEIK
# B2: Y010355: anti-PMEL17 antibody (IgG) (antibody, V domains shown)
# VH: EVQLVESGGGLVKPGGSLRLSCAASGFTFSNYWISWVRQAPGKGLEWVGRIKSKTYGGTTDYAEPVKGRFTISRDDSKNTLYLQMNSLKTEDTAVYYCARTSRRSYAFDYWGQGTLVTVSS
# VL: DIQMTQSPSTLSASVGDRVTITCRASQSISSWLAWYQQKPGKAPKLLIYDASSLESGVPSRFSGSGSGTEFTLTISSLQPEDFATYYCQQITRYPVTFGQGTKVEIK
# B3: Y010356: anti-PMEL17 antibody (IgG) (antibody, V domains shown)
# VH: EVQLVESGGGLVKPGGSLRLSCAASGFTFSNYWISWVRQAPGKGLEWVGRIKSKTYGGTTDYAEPVKGRFTISRDDSKNTLYLQMNSLKTEDTAVYYCARVSGYYSHSGGFDVWGQGTLVTVSS
# VL: DIQMTQSPSSLSASVGDRVTITCRASQGISNYLAWYQQKPGKVPKLLIYAASTLQSGVPSRFSGSGSGTDFTLTISSLQPEDVATYYCQKTWRTPGTFGQGTKVEIK
# B4: MOR024354: anti-PMEL17 antibody (IgG) (antibody, V domains shown)
# VH: QVQLLESGGGLVQPGGSLRLSCAASGFTFSSFGMSWVRQAPGKGLEWVSAISYSGSDTYYADSVKGRFTISRDNSKNTLYLQMNSLRAEDTAVYYCARDVGVMDYWGQGTLVTVSS
# VL: SYELTQPLSVSVALGQTARITCSGDNLGTYYAHWYQQKPGQAPVLVIYSQSHRPSGIPERFSGSNSGNTATLTISRAQAGDEADYYCGAWDAPSPELVFGGGTKLTVL
# B5: Y010903: anti-PMEL17 antibody (IgG) (antibody, V domains shown)
# VH: EVQLVESGGGLVKPGGSLRLSCAASGFTFSNAWMSWVRQAPGKGLEWVGRIKSKTDAGTTDYAAPVKGRFTISRDDSKNTLYLQMNSLKTEDTAVYYCARASHRLHSLFDVWGQGTLVTVSS
# VL: DIQMTQSPSTLSASVGDRVTITCRASQSISSWLAWYQQKPGKAPKLLIYDASSLESGVPSRFSGSGSGTEFTLTISSLQPEDFATYYCQQGLFYPHTFGQGTKVEIK
# B6: Y010910: anti-PMEL17 antibody (IgG) (antibody, V domains shown)
# VH: EVQLVESGGGLVKPGGSLRLSCAASGFTFSNAWMSWVRQAPGKGLEWVGRIKSKTDAGTTDYAAPVKGRFTISRDDSKNTLYLQMNSLKTEDTAVYYCARVASPSAPGGFDYWGQGTLVTVSS
# VL: DIQMTQSPSSLSASVGDRVTITCRASQGISNYLAWYQQKPGKVPKLLIYAASTLQSGVPSRFSGSGSGTDFTLTISSLQPEDVATYYCQQSLFAPFTFGQGTKVEIK
# B7: Y010906: anti-PMEL17 antibody (IgG) (antibody, V domains shown)
# VH: EVQLVESGGGLVKPGGSLRLSCAASGFTFSNAWMSWVRQAPGKGLEWVGRIKSKTDAGTTDYAAPVKGRFTISRDDSKNTLYLQMNSLKTEDTAVYYCARDEYPWGWFDVWGQGTLVTVSS
# VL: DIQMTQSPSSVSASVGDRVTITCRASQGISSWLAWYQQKPGKAPKLLIYAASSLQSGVPSRFSGSGSGTDFTLTISSLQPEDFATYYCQQYIFYPLTFGQGTKVEIK
# Tests used:
# 92.1 uveal melanoma = test: Resazurin-based viability assay, 92.1 uveal melanoma cells; format: cell-based; details: 92.1 GNAQ^Q209L; Table 1; read-out: GI50 (nM) 92.1GNAQ^Q209L
# Experimental: (§1) Following drug treatment for 96 or 120 hours, cell viability and proliferation were determined using a resazurin-based viability assay. Briefly, cells were incubated with a resazurin-based solution and color change was detected by absorbance with a spectrophotometer and used as a readout of cell viability. Data presented as mean of 3 independent replicates and relative to PBS-treated cells (control).
# as §1, with “(control) (FIG. 6).” for “(control).”
# Following drug treatment for 96 or 120 hours, cell viability and proliferation were determined using a resazurin-based viability assay. Data presented as mean of 3 independent replicates and relative to PBS-treated cells (control) (FIG. 8).
# as §1
# human PMEL17 = target: T1, human PMEL17; test: Apparent affinity by FACS titration of IgGs on G-361 melanoma cell line; format: binding
# Experimental: (§2) Purified IgGs were titrated on a variety of PMEL17 expressing and PMEL17 non expressing cell lines (for control) to determine EC50 values. Cells were harvested using Accutase, adjusted to ˜4×10^6 cells/ml into FACS buffer (PBS, 3% FCS and 0.02% Na-Azide) and kept on ice to avoid internalization. 15 μl of cell suspension/well were transferred into 384 well V-bottom plates (Greiner, Cat #781280) and incubated with 15 μl of IgGs at different concentrations (most commonly from 200 to 3.5×10−3 nM) for 1 hour at 4° C., gently shaking. Following incubation, cells were washed three times with FACS buffer. After each washing step, cells were centrifuged (250×g, 5 min, 4° C.) and carefully resuspended. 15 μl of detection antibody conjugated to PE (PE-conjugated goat anti-human IgG, F(ab′)2 fragment specific, 1:150 in FACS buffer; Jackson Immuno Research, #109-116-097) or Alexa Fluor (Alexa Fluor-conjugated goat anti-human IgG, F(ab′)2 fragment specific, 1:150 in FACS buffer; Jackson Immuno Research, #109-606-097) were added and samples were incubated for 45 minutes to 1 hour on ice in the dark, gently shaking. After 3 washing steps, cells were resuspended in 30 μl of FACS buffer and samples were measured using the IntelliCyt HTFC device. EC50 values were calculated using the Graphpad Prism software. G-361 melanoma cell line expresses human PMEL17 at a lower level compared to the HKB11-human PMEL17 overexpressing cell line, and therefore allows a more precise ranking of the clones depending on their apparent affinity on cells.
# The cross-specificity of the IgGs was evaluated in does response FACS on G-361 (human melanoma), HKB11-cyno-PMEL17, HKB11-rat PMEL17 and B16-F10 (mouse PMEL17 expressing melanoma) (Table 3). […]
# mouse PMEL17 = target: T2, mouse PMEL17; test: Apparent affinity by FACS titration of IgGs on B16-F10 melanoma cells; format: binding; details: Alexa Fluor
# Experimental: as §2
# (§3) The cross-specificity of the IgGs was evaluated in does response FACS on G-361 (human melanoma), HKB11-cyno-PMEL17, HKB11-rat PMEL17 and B16-F10 (mouse PMEL17 expressing melanoma) (Table 3). Testing on G-361 was performed using a detection antibody labelled to PE. In contrast, an Alexa-Fluor labelled detection antibody had to be used for testing the candidates on the other cell lines so as to reach detectable signals.
# UACC-62 = test: FACS titration of IgGs on UACC-62 cells; format: binding; details: UACC-62, PE-labelled detection antibody
# Experimental: as §2
# PMEL17 = test: Cross-reactivity (cross-specificity profile) of anti-PMEL17 IgGs in dose response FACS; format: binding; design: key: h/c/r/m: human/cyno/rat/mouse; h/c/r: human/cyno/rat; h/c/(m): human/cyno/mouse; h/c: human/cyno; details: h human, c cyno, r rat, m mouse
# Experimental: as §3
# IgGs were classified into several epitope groups according to their cross-specificity profiles.
# [1] = G-361, Alexa Fluor-labelled detection antibody, read-out: FACS EC50 (nM) G-361 (Alexa Fluor)
# [2] = G-361, PE-labelled detection antibody, read-out: FACS EC50 (nM) G-361 (PE)
Molecule,GI50 (92.1 uveal melanoma) [nM],EC50 (human PMEL17; [1]) [nM],EC50 (mouse PMEL17) [nM],UACC-62 (PE) (UACC-62),Cross spe profile (based on C14 detection ab) (PMEL17),EC50 (human PMEL17; [2]) [nM]
"C=C1C(=O)N[C@@H](C)C(=O)N(C)[C@@H](C)C(=O)N[C@@H]([C@H](OC(=O)[C@@H](NC(=O)CC)[C@H](O)C(C)C)C(C)C)C(=O)N(C)[C@@H]([C@@H](C)OC)C(=O)O[C@H](C)[C@H](NC(C)=O)C(=O)O[C@H](Cc2ccccc2)C(=O)N1C [Compound (A3), (R)-1-((3S,6S,9S,12S,18R,21S,22R)-21-acetamido-18-benzyl-3-((R)-1-methoxyethyl)-4,9,10,12,16,22-hexamethyl-15-methylene-2,5,8,11,14,17,20-heptaoxo-1,19-dioxa-4,7,10,13,16-pentaazacyclodocosan-6-yl)-2-methylpropyl (2S,3R)-3-hydroxy-4-methyl-2-propionamidopentanoate] (Ac-T[dPhLac][NMeDha]A[NMeA][X1](Leu(3R-OH,Nα-propionyl))[NMeT](Me); ester 1-C)",9.3,–,–,–,–,–
B1,–,1.3,> 100,Negative,h/c/r/m,–
B2,–,–,–,Negative,h/c/r/m,0.5
B3,–,–,–,Negative,h/c/r/m,1.6
B4,–,1.7,> 100,Negative,h/c/r,–
B5,–,3.2,–,Negative,h/c/(m),–
B6,–,10,–,Negative,h/c/(m),–
B7,–,–,–,Negative,h/c/r/m,–
